Data taken from WO2009150539A2 (dated 2009).
Several values for one entry are separate records, joined by “and”; a condition that tells them apart may be missing. Identical values can stand only once.

What was measured:
[1] = biological target: T1, AahII toxin of Androctonus australis hector (Androctonus australis hector, UniProt P01484 20-83); assay: phage ELISA on coated AahII, Nb displayed on phage
T1 construct: mature; also called Aahll
T1 sequence: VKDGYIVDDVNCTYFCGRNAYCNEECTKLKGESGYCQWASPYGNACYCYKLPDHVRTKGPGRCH

[2] = biological target: T1, AahII toxin of Androctonus australis …; assay: cell-based or functional assay
[3] = biological target: T1, AahII toxin of Androctonus australis …; assay: SPR (BIAcore), AahII immobilised on CM5 chip, Nb in mobile phase

B1: NbAahII16 (VHH)
VHH: HVQLVESGGGSVQAGGSLRLSCAASGYTFSNYRMGWFRRAPGKECELVSTILTDGSTNYADSVKGRFTISRDNAKNTVYLLMNNLKAEDTAVYYCAAGNSRKGYLRRCGGTDFGYWGQGTQVTVSS
notes: also called NbAahlllό
B1: binds [1].

B2: NbAahII45 (VHH)
VHH: QVQLQESGGGSVQAGGSLKLSCAASGYFYSSNYYMAWFRQAPGKEREGVAHINRSGRITLYADSVKGRFTMSRDNAKNTVYLQMNSLKPEDTAIYYCAAGVRTHMPPLASYGFDYWGQGTQVTVSS
B2: binds [1].

B3: NbAahII38 (VHH)
VHH: DVQLVESGGGLVQPGGSLRLSCAASGFTFSNYVMSWVRQAPGKGLEWVSGINHGGGIQDYADSVKGRFTISRDNAKNTLYLQLNSLKIEDTAMYYCVRASHYRDYGPTIYSWGQGTQVTVSS
notes: also called cluster H
With B3 the “Survivors/Injected mice; i.c.v.; AahII:Nb 1:2; 2 LD50/mouse; 24 ng Nb/mouse” value [2] was 1 survivors of 4 mice, the “Survivors/Injected mice; i.c.v.; AahII:Nb 1:2; 3 LD50/mouse; 36 ng Nb/mouse” value [2] was 0 survivors of 4 mice and the Kd [3] was 76 nM. It also gave a koff [3] of 0.000781 s⁻¹ and a kon [3] of 10200 M⁻¹ s⁻¹.

B4: NbAahII10 (VHH)
VHH: QVQLVESGGGSVQAGGSLKLSCAASGYFYSSNYCLGWFRQAPGKEREGVAQINIAPGRIYYADSVKGRFTISRDNAKNTVYLQMDSLKPEDTAIYYCASTAGNMYYGLRGPADFDYWGQGTQVTVSS
notes: also called NbAahIIlO; NbAahII lO
For B4, the “NC = (LD50 with Nb - LD50 without Nb)/Nb; i.c.v.; AahII:Nb 1:4” value [2] was 37000 LD50/mg and 555 LD50/nmol, the “Survivors/Injected mice; i.c.v.; AahII:Nb 1:4; 2 LD50/mouse; 48 ng Nb/mouse” value [2] was 4 survivors of 4 mice and the “Survivors/Injected mice; i.c.v.; AahII:Nb 1:4; 3 LD50/mouse; 72 ng Nb/mouse” value [2] was 4 survivors of 4 mice. The “neutralizing capacity, i.c.v., toxin/Nb ratio 1/4” value [2] was ~37500 LD50/mg, the Kd [3] was 0.49 nM and the koff [3] was 0.000569 s⁻¹. It also gave a kon [3] of 1.14e+06 M⁻¹ s⁻¹.

B5: NbAahII3 (VHH)
VHH: QVQLVESGGGSVQAGGSLRLACAASGVTLSDYCMGWFRQAPGKEREGVAAIKDRGSISYYADSVKGRFTISKDNAKNTMYLQMNRLNSEDTAMYYCAVTRNSCLGLAKFRPPSYNYWGQGTQVTVSS
notes: also called NbAahID; NbAahIB
B5: binds [1].

B6: NbAahII11 (VHH)
VHH: QVQLQESGGGSVQAGGSLRLSCAASGLTLNNYCIGWFRQAPGKEREGVAALKSGGSFTYYADSVKGRFTISRDNAKNTMYLQMSSLNSEDTAMYYCAVTRNSCLGLAKFRPSSYNYWGQGTQVTVSS
notes: also called NbAaWI 1 1; NbAahIIl l
B6: binds [1].

B7: NbAahII32 (VHH)
VHH: QVQLQESGGGSVQAGGSLRLSCAASGLTLNNYCIGWFRQAPGKEREGVAALKSGGSFTYYADSVKGRFTISRDNAKNTMYLQMSSLNSEDTAMYYCAVTRNSCLGLAKFRPSSYNYWGQGTQVTVSS
B7: binds [1].

B8: NbAahII6 (VHH)
VHH: QVQLQESGGGSVQAGGSLRLSCAASGATLNNYCLGWFRQAPGKEREGVAAFKSGGSFTYYADSVKGRFTISKDNAKNTMYLQMNSLNSEDTAMYYCAVTRHSCLGLAKFRPSSYNYWGQGTQVTVSS
notes: also called NbAahllό
B8: binds [1].

B9: NbAahII48 (VHH)
VHH: QVQLVESGGGSVQAGGSLRLSCAASGYTCTKFNMGWYRQAPGKEREFVATIRRDSTIYYADSVKGRFTISQDNAKNMVYLQMTSLKPEDSAMYYCSTRCVTSSVPYWGQGTQVTVSS
B9: binds [1].
